Earlier results in publication PMC10474108.

Target: tau (full-length, nonphosphorylated) (Homo sapiens) (UniProt P10636)
Sequence of UniProt P10636 (P10636 2-758): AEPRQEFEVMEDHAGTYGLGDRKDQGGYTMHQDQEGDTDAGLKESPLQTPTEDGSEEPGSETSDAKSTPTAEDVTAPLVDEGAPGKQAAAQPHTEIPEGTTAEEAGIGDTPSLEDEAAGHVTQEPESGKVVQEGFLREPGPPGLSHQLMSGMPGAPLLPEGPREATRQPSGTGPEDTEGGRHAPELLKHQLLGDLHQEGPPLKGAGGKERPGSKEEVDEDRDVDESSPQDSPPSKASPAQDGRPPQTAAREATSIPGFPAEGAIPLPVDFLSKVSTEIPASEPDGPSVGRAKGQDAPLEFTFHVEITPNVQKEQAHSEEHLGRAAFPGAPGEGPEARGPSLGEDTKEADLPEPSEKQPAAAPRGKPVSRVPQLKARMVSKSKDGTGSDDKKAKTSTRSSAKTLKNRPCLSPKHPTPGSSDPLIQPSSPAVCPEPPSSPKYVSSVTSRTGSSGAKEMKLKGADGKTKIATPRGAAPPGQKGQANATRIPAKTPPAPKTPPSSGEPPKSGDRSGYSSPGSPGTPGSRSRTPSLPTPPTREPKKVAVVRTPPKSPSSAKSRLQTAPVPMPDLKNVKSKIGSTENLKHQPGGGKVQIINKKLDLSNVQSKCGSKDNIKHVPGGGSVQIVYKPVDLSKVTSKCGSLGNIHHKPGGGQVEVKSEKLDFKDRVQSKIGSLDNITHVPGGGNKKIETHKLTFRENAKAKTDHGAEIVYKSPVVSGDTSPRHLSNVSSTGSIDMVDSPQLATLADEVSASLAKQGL

Kd: 0.06 µM
Substance: LRP1 (from UniProt Q07954)
